Key:
[1] = molecular target: T1, FGFR1 (Homo sapiens, UniProt P11362); test: FGFR1 pYtag in NIH 3T3 cells: clearance of cytosolic ZtSH2; type: cell-based; conditions: not in cells with ITAM-less FGFR1
T1 construct: expressed in transfected cells; host or cells: NIH 3T3 cells expressing iRFP-ZtSH2
Description: One advantage of the pYtag approach is its modularity: ITAMs can in principle be fused to the C-termini of many different RTKs and recruit ZtSH2 upon stimulation. Therefore, it was tested whether pYtags could be adapted to monitor the activity of receptors other than EGFR. pYtag biosensors were designed for two additional RTKs: 1) ErbB2, a ligandless member of the ErbB family that signals by heterodimerizing with ligand-bound EGFR; and 2) fibroblast growth factor receptor 1 (FGFR1), a non-ErbB family RTK. ErbB2 is a particularly challenging RTK to study because it can only be activated in conjunction with an additional RTK (e.g., EGFR), so Grb2-based biosensors would be unable to distinguish between the activity of EGFR and ErbB2.
Starting from NIH 3T3 cells expressing iRFP-ZtSH2, cell lines expressing either an ErbB2 pYtag (ErbB2-CD3ε-FusionRed), an FGFR1 pYtag (FGFR1-CD3ε-FusionRed), or ITAM-less variants of each were generated. For the ErbB2 case, cells with EGFR-Citrine were further transduced to express both required components of a functional receptor heterodimer (see FIG. 3, and FIGS. 4A-4B).
The pYtag approach is indeed modular, and this strategy can be readily adapted for monitoring the activation of distinct RTKs in individual cells.

[2] = molecular target: EGFR (Homo sapiens, UniProt P00533); test: EGFR pYtag live-cell imaging: clearance of cytosolic ZtSH2 in NIH 3T3 cells; conditions: varying doses, NIH 3T3 EGFR pYtag
Description: Six ITAMs from the CD3γ, CD3δ, CD3ε, and CD3ζ chains of the TCR. In each case, three identical repeats of the ITAM were fused to the C-terminal tail of EGFR followed by the FusionRed fluorescent protein (EGFR-ITAM-FusionRed). Each receptor was the co-expressed with an iRFP-labeled ZtSH2 (iRFP-ZtSH2) in NIH 3T3 fibroblasts, which express negligible levels of EGFR. […] Because ZtSH2 can in principle be recruited rapidly on and off the membrane and may localize to distinct subcellular compartments, it was reasoned that pYtags could be used to monitor the subcellular activity of an RTK in individual cells over time.

T1 sequence (P11362 22-822, species assumed): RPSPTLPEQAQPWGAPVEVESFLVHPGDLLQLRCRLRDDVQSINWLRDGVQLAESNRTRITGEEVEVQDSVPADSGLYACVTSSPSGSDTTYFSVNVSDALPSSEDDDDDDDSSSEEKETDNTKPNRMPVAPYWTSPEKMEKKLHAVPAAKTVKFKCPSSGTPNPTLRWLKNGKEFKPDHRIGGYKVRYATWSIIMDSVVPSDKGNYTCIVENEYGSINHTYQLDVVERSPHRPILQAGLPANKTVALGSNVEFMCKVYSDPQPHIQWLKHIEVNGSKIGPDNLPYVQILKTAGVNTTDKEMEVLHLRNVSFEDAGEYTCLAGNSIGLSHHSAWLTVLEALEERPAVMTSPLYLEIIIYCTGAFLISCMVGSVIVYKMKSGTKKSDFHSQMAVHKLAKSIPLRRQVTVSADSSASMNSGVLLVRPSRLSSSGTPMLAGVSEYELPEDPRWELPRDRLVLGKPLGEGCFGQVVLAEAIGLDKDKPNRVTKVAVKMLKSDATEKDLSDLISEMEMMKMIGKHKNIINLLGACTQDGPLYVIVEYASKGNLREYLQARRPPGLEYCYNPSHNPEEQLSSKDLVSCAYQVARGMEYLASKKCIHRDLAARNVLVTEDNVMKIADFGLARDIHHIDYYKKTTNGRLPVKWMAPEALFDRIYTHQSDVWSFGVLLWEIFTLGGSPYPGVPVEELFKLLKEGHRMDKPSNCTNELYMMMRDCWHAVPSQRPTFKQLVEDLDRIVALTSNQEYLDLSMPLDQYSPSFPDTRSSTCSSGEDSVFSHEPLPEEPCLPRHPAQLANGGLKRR

Row | Molecule | ZtSH2 response of FGFR1 pYtag-expressing cells [1] | EGFR activity dynamics after low-affinity ligand [2]
1 | FGF4: activating ligand used to stimulate FGFR1 pYtag-expressing cells (protein, UniProt P08620 31-206, looked up) Fibroblast growth factor 4: APTAPNGTLEAELERRWESLVALSLARLPVAAQPKEAAVQSGAGDYLLGIKRLRRLYCNVGIGFHLQALPDGRIGGAHADTRDSLLELSPVERGVVSIFGVASRFFVAMSSKGKLYGSPFFTDECTFKEILLPNNYNAYESYKYPGMFIALSKNGKTKKGNRVSPTMKVTHFLPRL | induced cytosolic clearance of ZtSH2 | 
2 | EPGN: epigen, low-affinity EGFR ligand (protein, UniProt Q6UW88 23-154, looked up) Epigen: AAVTVTPPITAQQGNWTVNKTEADNIEGPIALKFSHLCLEDHNSYCINGACAFHHELEKAICRCFTGYTGERCEHLTLTSYAVDSYEKYIAIGIGVGLLLSGFLVIFYCYIRKRCLKLKSPYNVCSGERRPL |  | rapid rise in EGFR activity followed by a plateau within minutes
